Article PMC13066097 (Nature Communications, 2026)
Substitutions are numbered along the chain they refer to.

Experiments:
[1] = biological target: T1, recombinant PcrV protein (rePcrV) coated on ELISA plates (Pseudomonas aeruginosa, strain not told …); test: ELISA
T1 chain: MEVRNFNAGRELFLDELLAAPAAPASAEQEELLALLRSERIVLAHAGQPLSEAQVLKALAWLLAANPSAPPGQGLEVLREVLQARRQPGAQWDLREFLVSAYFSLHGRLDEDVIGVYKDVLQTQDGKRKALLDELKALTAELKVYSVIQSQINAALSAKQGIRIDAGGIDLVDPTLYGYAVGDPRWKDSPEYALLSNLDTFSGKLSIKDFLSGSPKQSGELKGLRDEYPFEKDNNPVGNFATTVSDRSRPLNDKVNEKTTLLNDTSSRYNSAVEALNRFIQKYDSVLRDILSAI

[2] = biological target: T2, PcrV of P. aeruginosa clinical isolate KN17, from bacterial culture (Pseudomonas aeruginosa clinical isolate …, strain); test: immunoblot
T2 chain: T1 chain with G9A, R225K

[3] = biological target: PcrV of P. aeruginosa clinical isolate KN15, from bacterial culture (Pseudomonas aeruginosa KN15 (ST512), strain); test: immunoblot
[4] = biological target: T3, PcrV of P. aeruginosa clinical isolate KN28, from bacterial culture (Pseudomonas aeruginosa KN28 (ST357); …, strain); test: immunoblot
T3 chain: T1 chain with G9A, R225K

[5] = biological target: T4, PcrV of P. aeruginosa clinical isolate KP2401, from bacterial culture (Pseudomonas aeruginosa KP2401 (ST5295), strain); test: immunoblot
T4 chain: T1 chain with G9A, V55E

[6] = biological target: PcrV of P. aeruginosa strain PAO1, from bacterial culture (Pseudomonas aeruginosa PAO1); test: immunoblot
[7] = biological target: T5, PcrV of P. aeruginosa clinical isolate KN41, from bacterial culture (Pseudomonas aeruginosa KN41 (ST235), strain); test: immunoblot
T5 chain: T1 chain with V55E

[8] = biological target: T6, PcrV of P. aeruginosa clinical isolate KN27, from bacterial culture (Pseudomonas aeruginosa KN27 (ST235), strain); test: immunoblot
T6 chain: T1 chain with V55E

[9] = biological target: PcrV of P. aeruginosa clinical isolate KN37, from bacterial culture (Pseudomonas aeruginosa KN37 (ST244), UniProt G3XD49, strain); test: immunoblot
[10] = biological target: T7, PcrV of P. aeruginosa clinical isolate KN5, from bacterial culture (Pseudomonas aeruginosa KN5 (ST357), strain); test: immunoblot
T7 chain: T1 chain with G9A, R225K

[11] = biological target: PcrV of P. aeruginosa clinical isolate KN33, from bacterial culture (Pseudomonas aeruginosa KN33 (ST508), UniProt G3XD49, strain); test: immunoblot
[12] = biological target: PcrV of P. aeruginosa clinical isolate KN34, from bacterial culture (Pseudomonas aeruginosa KN34 (ST186), UniProt G3XD49, strain); test: immunoblot
[13] = biological target: T8, 6xHis-tagged PcrV of P. aeruginosa clinical isolate KN5 expressed in E. coli (Pseudomonas aeruginosa KN5 (ST357), strain); test: immunoblot
T8 chain: T1 chain with G9A, R225K

[14] = biological target: T9, 6xHis-tagged PcrV of P. aeruginosa clinical isolate KN28 expressed in E. coli (Pseudomonas aeruginosa KN28 (ST357), strain); test: immunoblot
T9 chain: T1 chain with G9A, R225K

[15] = biological target: T10, 6xHis-tagged PcrV of P. aeruginosa clinical isolate KP2401 expressed in E. coli (Pseudomonas aeruginosa KP2401 (ST5295), strain); test: immunoblot
T10 chain: T1 chain with G9A, V55E

[16] = biological target: 6xHis-tagged PcrV of P. aeruginosa clinical isolate KN33 expressed in E. coli (Pseudomonas aeruginosa KN33 (ST508), strain); test: immunoblot
[17] = biological target: T11, 6xHis-tagged PcrV of P. aeruginosa clinical isolate KN17 expressed in E. coli (Pseudomonas aeruginosa KN17 (ST357), strain); test: immunoblot
T11 chain: T1 chain with G9A, R225K

[18] = biological target: 6xHis-tagged PcrV of P. aeruginosa clinical isolate KN34 expressed in E. coli (Pseudomonas aeruginosa KN34 (ST186), strain); test: immunoblot
[19] = biological target: T12, 6xHis-tagged PcrV of P. aeruginosa clinical isolate KN27 expressed in E. coli (Pseudomonas aeruginosa KN27 (ST235), strain); test: immunoblot
T12 chain: T1 chain with V55E

[20] = biological target: 6xHis-tagged PcrV of P. aeruginosa clinical isolate KN37 expressed in E. coli (Pseudomonas aeruginosa KN37 (ST244), strain); test: immunoblot
[21] = biological target: T13, 6xHis-tagged PcrV of P. aeruginosa clinical isolate KN41 expressed in E. coli (Pseudomonas aeruginosa KN41 (ST235), strain); test: immunoblot
T13 chain: T1 chain with V55E

[22] = biological target: 6xHis-tagged PcrV of P. aeruginosa clinical isolate KN15 expressed in E. coli (Pseudomonas aeruginosa KN15 (ST512), strain); test: immunoblot

B1: anti-PcrV scFv antibody scFv-m166 (recombinant protein) (scFv, V domains shown)
VH: QVQLKQSGPGLVQPSQSLSITCTVSGFSLTSYGVHWVRQSPGKGLEWLGVIWSGGDTDYNAAFISRLSISKDNSKSQLFFKMNSLRATDTAIYYCARNRGDIYYDFTYAMDYWGQGTSVTVSS
VL: DIQMTQSPASLSASVGETVTITCRASGNIQNYLAWYQQTQGKSPQLLVYSAKTLADGVPSRFSGSGSGTQYSLKINSLQPEDFGSYYCQHFWSTPYTFGGGTKLEIK
Question: For B1, which EC50 [1] is on record?
Answer: 35 nM

B2: murine monoclonal anti-PcrV IgG mAb166 (antibody, V domains shown)
VH: B1 VH
VL: B1 VL
Question: Does B2 bind [2]?
Answer: binds

Question: Does B2 bind [3]?
Answer: binds

Question: Does B2 bind [4]?
Answer: binds

Question: Does B2 bind [5]?
Answer: binds

Question: Does B2 bind [6]?
Answer: binds

Question: Does B2 bind [7]?
Answer: binds

Question: Does B2 bind [8]?
Answer: binds

Question: Does B2 bind [9]?
Answer: binds

Question: Does B2 bind [10]?
Answer: binds

Question: Does B2 bind [11]?
Answer: binds

Question: Does B2 bind [12]?
Answer: binds

Question: Does B2 bind [13]?
Answer: binds

Question: Does B2 bind [14]?
Answer: binds

Question: Does B2 bind [15]?
Answer: binds

Question: Does B2 bind [16]?
Answer: binds

Question: Does B2 bind [17]?
Answer: binds

Question: Does B2 bind [18]?
Answer: binds

Question: Does B2 bind [19]?
Answer: binds

Question: Does B2 bind [20]?
Answer: binds

Question: Does B2 bind [21]?
Answer: binds

Question: Does B2 bind [22]?
Answer: binds

B3: anti-PcrV scFv conjugated with the mouse IgG1 hinge, CH2 and CH3 domains, scFv-m166-mFc (recombinant protein) (Fc fusion)
VH: B1 VH
VL: B1 VL
Question: B3 was tested. Which EC50 [1] did it give?
Answer: 57.2 nM
